{"source": "patent US20240101652A1", "about": "(SINGH BIOTECHNOLOGY, published 2024)", "key": {"[1]": {"target": "STAT3 (endogenous, in human cells and from lysed cancer cell lines) (human, UniProt P40763 2-770)", "assay": "cell-based or functional assay"}, "[2]": {"target": "T1, Human STAT3 Protein (recombinant) (human, UniProt P40763 1-770)", "T1 construct": "also called recombinant STAT3", "assay": "SPR, Biacore 3000"}}, "note": "“And” between values parts separate entries of the source, which are not always exact repeats. Equal entries are not always repeated.", "data": [{"binder": "Anti-KRAS/Anti-STAT3 VHH (SBT-100 (SEQ ID NO: 1)) (VHH) VHH: HVQLVESGGGSVQAGGSLRLSCAASGANGGRSCMGWFRQVPGKEREGVSGISTGGLITYYADSVKGRFTISQDNTKNTLYLQMNSLKPEDTAMYYCATSRFDCYRGSWFNRYMYNSWGQGTQVTVSS", "values": [{"measurement": "IC50, STAT3 luciferase reporter assay in HEK 293 cells after IL-6 stimulation", "setting": "[1]", "result": "2.68 µg/mL and 0.18 µM"}]}, {"binder": "Anti-KRAS VHH (SBT-102 (SEQ ID NO: 2)) (VHH) VHH: EVQLVESGGGSVQTGGSLRLSCAVSGNIGSSYCMGWFRQAPGKKREAVARIVRDGATGYADYVKGRFTISRDSAKNTLYLQMNRLIPEDTAIYYCAADLPPGCLTQAIWNFGYRGQGTLVTVSS", "values": [{"measurement": "binding result", "setting": "[2]", "result": "no binding"}]}]}
